Reference: PMC5651216, “Structural Basis for a Safety-Belt Mechanism That Anchors Condensin to Chromosomes”

T1: Sc Ycg1 crystallization construct;Sc Brn1 384-529 (Saccharomyces cerevisiae;Saccharomyces …, UniProt Q06680;P38170 6-932;384-529, del499-555|)
T1 sequence 1: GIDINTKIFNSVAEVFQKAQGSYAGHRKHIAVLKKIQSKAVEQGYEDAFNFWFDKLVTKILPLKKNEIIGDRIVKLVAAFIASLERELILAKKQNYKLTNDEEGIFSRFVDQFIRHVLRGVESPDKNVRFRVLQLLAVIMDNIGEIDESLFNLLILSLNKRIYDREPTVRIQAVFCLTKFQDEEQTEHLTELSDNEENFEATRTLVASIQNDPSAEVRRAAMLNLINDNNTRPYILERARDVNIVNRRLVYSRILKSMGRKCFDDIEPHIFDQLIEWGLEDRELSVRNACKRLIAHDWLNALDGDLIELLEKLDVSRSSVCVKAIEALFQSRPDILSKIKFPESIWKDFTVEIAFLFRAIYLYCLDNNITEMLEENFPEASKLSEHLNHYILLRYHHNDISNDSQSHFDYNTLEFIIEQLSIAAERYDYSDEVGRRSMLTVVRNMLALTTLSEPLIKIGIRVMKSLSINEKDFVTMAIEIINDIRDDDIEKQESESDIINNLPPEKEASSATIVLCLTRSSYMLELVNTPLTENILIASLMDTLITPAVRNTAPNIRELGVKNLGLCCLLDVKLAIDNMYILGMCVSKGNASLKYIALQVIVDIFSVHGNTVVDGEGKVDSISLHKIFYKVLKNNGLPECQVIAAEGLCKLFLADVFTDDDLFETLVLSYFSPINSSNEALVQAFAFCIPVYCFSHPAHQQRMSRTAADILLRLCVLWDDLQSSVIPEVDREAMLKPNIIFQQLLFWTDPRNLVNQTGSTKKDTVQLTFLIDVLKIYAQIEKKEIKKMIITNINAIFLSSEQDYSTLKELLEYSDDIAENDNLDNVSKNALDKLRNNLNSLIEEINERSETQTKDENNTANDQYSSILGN
T1 sequence 2: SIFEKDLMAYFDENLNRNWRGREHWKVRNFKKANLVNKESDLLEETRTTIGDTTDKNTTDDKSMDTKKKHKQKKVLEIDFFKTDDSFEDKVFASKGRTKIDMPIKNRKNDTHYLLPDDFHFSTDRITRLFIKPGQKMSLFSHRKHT

T2: Sc Ycg1 crystallization construct;Sc Brn1 short kleisin loop (Saccharomyces cerevisiae;Saccharomyces …, UniProt Q06680;P38170 6-932;384-529, del499-555|del418-444)
T2 sequence 1: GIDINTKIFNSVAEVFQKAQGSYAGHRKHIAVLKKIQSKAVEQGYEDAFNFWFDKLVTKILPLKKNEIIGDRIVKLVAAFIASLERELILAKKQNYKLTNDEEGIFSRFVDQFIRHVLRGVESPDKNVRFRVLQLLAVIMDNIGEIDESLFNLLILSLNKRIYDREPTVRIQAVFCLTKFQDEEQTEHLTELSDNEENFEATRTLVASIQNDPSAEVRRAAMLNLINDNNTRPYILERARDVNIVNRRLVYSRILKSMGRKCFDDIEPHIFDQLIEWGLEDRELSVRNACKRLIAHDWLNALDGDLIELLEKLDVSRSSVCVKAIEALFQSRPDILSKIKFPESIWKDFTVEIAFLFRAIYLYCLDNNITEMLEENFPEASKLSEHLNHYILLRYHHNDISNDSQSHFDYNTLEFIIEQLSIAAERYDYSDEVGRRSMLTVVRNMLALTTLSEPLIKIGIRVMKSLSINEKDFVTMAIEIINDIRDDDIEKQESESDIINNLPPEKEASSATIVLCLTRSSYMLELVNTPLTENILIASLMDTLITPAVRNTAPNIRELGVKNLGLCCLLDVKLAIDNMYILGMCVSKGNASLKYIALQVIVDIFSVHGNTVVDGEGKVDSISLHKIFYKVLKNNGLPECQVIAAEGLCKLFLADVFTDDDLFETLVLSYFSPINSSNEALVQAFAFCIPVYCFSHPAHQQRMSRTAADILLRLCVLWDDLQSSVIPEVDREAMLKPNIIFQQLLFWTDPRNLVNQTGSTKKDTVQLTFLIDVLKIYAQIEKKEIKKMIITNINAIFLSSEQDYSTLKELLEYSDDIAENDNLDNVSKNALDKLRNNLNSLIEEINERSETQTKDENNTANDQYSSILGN
T2 sequence 2: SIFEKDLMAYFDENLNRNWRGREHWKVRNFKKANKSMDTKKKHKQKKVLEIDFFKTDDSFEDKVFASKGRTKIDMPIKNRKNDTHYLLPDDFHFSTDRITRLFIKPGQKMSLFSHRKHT


Assays:
[1] = test system: Ct Ycg1 24-1006;Ct Brn1 deltaN 539-634 (Chaetomium thermophilum;Chaetomium thermophilum); assay: EMSA; details: protein conc. at which free DNA is depleted; EMSA: 10 mM HEPES-KOH pH 7.5, 125 mM NaCl, 5 mM MgCl2, 1 mM DTT, 30 min, gels at 4 C, 0.2 uM 35-bp or 10 nM 2.1-kb DNA; ITC: 25 mM Tris-HCl pH 7.5, 200 mM …
[2] = test system: Ct Ycg1 24-1006;Ct Brn1 515-634 (Chaetomium thermophilum;Chaetomium thermophilum); assay: EMSA; details: protein conc. at which free DNA is depleted; EMSA: 10 mM HEPES-KOH pH 7.5, 125 mM NaCl, 5 mM MgCl2, 1 mM DTT, 30 min, gels at 4 C, 0.2 uM 35-bp or 10 nM 2.1-kb DNA; ITC: 25 mM Tris-HCl pH 7.5, 200 mM …
[3] = test system: Ct Ycg1 24-1006;Ct Brn1 PhiD 515-634 (Chaetomium thermophilum;Chaetomium thermophilum); assay: EMSA; details: protein conc. at which free DNA is depleted; EMSA: 10 mM HEPES-KOH pH 7.5, 125 mM NaCl, 5 mM MgCl2, 1 mM DTT, 30 min, gels at 4 C, 0.2 uM 35-bp or 10 nM 2.1-kb DNA; ITC: 25 mM Tris-HCl pH 7.5, 200 mM …
[4] = test system: Ct Ycg1 24-1006;Ct Brn1 515-634 (Chaetomium thermophilum;Chaetomium thermophilum); assay: ITC; details: 2 mM Mg2+, 25 C; EMSA: 10 mM HEPES-KOH pH 7.5, 125 mM NaCl, 5 mM MgCl2, 1 mM DTT, 30 min, gels at 4 C, 0.2 uM 35-bp or 10 nM 2.1-kb DNA; ITC: 25 mM Tris-HCl pH 7.5, 200 mM …
[5] = target: Sc Smc2;Sc Smc4;Sc Ycs4;Sc Ycg1;Sc Brn1 BC1/2 (Saccharomyces cerevisiae;Saccharomyces …, UniProt P38989;Q12267;Q06156;Q06680;P38170 1-1170;1-1418;1-1176;1-1035;1-754, ||||K409D;R411D;K414D;K451D;K452D;K454D;K456D;K457D); assay: EMSA; EMSA: 10 mM HEPES-KOH pH 7.5, 125 mM NaCl, 5 mM MgCl2, 1 mM DTT, 30 min, gels at 4 C, 0.2 uM 35-bp or 10 nM 2.1-kb DNA; ITC: 25 mM Tris-HCl pH 7.5, 200 mM NaCl, 2 mM MgCl2, 1 mM BME, 25 C; details: protein: recombinant;recombinant;recombinant;recombinant;recombinant; tags: ;C-terminal StrepII x3;;;C-terminal His12-HA3; copies: 1;1;1;1;1; label: 5' 6-FAM on strand 1; blunt
[6] = target: Sc Smc2;Sc Smc4;Sc Ycs4;Sc Brn1 (Saccharomyces cerevisiae;Saccharomyces …, UniProt P38989;Q12267;Q06156;P38170 1-1170;1-1418;1-1176;1-754, |||); assay: EMSA; lacks Ycg1; EMSA: 10 mM HEPES-KOH pH 7.5, 125 mM NaCl, 5 mM MgCl2, 1 mM DTT, 30 min, gels at 4 C, 0.2 uM 35-bp or 10 nM 2.1-kb DNA; ITC: 25 mM Tris-HCl pH 7.5, 200 mM NaCl, 2 mM MgCl2, 1 mM BME, 25 C; details: protein: recombinant;recombinant;recombinant;recombinant; tags: ;C-terminal StrepII x3;;C-terminal His12-HA3; copies: 1;1;1;1; label: 5' 6-FAM on strand 1; blunt
Sc Smc2;Sc Smc4;Sc Ycs4;Sc Brn1, sequence (P38989 whole entry, chain 1 of 4): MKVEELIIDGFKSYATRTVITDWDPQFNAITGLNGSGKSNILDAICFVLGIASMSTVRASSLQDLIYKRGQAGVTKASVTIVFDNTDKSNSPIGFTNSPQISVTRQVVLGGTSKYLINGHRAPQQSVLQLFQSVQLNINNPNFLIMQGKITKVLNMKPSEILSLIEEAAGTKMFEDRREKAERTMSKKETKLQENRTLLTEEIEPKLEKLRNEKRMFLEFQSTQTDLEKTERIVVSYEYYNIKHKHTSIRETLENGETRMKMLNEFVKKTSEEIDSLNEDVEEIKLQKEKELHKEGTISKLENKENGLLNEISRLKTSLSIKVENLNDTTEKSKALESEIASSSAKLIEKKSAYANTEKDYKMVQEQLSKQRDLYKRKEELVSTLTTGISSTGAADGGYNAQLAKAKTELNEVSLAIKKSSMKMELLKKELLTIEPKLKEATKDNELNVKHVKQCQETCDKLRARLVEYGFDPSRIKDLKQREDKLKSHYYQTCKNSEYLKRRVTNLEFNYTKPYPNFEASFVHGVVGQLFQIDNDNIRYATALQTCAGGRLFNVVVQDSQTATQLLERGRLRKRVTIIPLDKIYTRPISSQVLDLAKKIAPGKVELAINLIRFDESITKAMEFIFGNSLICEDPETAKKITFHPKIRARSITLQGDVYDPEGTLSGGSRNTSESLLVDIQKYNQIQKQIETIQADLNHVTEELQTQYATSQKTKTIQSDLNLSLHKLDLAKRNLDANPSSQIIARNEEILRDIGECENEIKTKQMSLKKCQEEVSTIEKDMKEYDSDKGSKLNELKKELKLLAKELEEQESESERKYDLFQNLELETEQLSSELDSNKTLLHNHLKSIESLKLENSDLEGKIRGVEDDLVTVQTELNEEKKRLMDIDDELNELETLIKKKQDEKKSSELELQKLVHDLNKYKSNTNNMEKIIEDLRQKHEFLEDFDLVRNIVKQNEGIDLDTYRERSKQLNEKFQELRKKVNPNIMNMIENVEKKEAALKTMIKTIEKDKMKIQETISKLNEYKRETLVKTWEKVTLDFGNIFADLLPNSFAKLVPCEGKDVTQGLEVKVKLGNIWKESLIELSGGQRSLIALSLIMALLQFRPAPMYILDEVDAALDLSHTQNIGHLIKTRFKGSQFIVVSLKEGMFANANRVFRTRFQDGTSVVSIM
Sc Smc2;Sc Smc4;Sc Ycs4;Sc Brn1, sequence (Q12267 whole entry, chain 2 of 4): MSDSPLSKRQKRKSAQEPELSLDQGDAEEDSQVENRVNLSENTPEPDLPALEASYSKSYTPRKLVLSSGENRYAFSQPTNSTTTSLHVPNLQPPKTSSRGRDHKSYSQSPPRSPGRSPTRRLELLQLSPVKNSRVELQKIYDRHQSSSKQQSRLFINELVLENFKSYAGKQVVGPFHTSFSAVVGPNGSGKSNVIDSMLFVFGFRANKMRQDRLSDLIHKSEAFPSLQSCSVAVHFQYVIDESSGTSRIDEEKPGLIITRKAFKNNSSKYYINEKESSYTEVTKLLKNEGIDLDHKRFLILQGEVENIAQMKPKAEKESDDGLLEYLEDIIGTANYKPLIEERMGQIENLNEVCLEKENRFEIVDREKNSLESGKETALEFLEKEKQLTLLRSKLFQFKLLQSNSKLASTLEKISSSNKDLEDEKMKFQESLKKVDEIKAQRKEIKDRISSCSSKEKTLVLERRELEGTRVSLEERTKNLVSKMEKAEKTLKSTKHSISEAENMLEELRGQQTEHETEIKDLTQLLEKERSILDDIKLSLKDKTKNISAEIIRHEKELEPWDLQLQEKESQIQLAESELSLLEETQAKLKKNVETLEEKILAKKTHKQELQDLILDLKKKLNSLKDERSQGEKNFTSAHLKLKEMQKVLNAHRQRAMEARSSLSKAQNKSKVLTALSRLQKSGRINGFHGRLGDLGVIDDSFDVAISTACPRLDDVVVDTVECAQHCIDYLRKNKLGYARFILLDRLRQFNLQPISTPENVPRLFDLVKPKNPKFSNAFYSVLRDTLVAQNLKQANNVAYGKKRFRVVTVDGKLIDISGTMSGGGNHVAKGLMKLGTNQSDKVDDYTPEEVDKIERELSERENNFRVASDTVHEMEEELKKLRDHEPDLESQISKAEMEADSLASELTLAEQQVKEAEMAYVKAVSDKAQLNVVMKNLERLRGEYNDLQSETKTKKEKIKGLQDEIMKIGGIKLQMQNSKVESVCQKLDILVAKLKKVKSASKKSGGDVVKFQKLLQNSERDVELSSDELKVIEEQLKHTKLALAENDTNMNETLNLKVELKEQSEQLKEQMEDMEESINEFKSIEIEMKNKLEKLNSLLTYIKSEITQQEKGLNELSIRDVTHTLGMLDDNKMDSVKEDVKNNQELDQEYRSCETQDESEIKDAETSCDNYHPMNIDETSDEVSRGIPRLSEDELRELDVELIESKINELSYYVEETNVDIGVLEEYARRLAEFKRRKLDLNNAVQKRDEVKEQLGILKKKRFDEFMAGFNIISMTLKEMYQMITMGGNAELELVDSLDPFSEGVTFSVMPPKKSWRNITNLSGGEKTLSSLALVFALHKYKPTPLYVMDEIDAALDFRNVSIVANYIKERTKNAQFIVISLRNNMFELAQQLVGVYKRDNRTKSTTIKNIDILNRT
Sc Smc2;Sc Smc4;Sc Ycs4;Sc Brn1, sequence (Q06156 whole entry, chain 3 of 4): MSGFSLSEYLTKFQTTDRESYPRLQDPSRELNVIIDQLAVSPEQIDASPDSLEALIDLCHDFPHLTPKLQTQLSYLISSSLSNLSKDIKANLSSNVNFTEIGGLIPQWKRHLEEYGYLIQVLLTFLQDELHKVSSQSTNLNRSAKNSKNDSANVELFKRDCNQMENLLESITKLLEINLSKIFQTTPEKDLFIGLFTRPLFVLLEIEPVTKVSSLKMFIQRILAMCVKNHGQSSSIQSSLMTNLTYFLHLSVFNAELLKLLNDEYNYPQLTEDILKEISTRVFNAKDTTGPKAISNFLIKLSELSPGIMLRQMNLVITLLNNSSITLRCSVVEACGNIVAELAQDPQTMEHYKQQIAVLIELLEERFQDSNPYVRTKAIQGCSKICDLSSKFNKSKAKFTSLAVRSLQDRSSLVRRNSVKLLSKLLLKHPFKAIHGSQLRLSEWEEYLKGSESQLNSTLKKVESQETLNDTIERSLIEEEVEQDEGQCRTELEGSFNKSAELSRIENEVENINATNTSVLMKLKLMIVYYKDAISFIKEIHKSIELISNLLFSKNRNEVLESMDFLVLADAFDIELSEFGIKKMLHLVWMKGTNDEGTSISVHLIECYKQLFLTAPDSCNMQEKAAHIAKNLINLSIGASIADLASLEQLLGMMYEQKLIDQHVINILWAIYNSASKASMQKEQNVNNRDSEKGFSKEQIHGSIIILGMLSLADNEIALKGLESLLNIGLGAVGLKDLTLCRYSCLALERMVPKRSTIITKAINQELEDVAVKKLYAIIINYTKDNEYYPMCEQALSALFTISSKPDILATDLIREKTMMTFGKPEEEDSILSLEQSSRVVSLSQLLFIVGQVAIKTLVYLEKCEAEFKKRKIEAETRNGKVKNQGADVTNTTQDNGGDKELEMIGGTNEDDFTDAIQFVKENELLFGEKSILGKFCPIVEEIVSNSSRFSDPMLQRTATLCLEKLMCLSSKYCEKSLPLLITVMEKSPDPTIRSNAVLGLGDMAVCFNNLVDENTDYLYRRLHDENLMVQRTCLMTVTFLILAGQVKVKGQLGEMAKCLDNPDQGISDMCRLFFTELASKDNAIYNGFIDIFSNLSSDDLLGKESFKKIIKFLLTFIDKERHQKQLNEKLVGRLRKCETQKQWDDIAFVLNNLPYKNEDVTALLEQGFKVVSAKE
Sc Smc2;Sc Smc4;Sc Ycs4;Sc Brn1, sequence (P38170 whole entry, chain 4 of 4): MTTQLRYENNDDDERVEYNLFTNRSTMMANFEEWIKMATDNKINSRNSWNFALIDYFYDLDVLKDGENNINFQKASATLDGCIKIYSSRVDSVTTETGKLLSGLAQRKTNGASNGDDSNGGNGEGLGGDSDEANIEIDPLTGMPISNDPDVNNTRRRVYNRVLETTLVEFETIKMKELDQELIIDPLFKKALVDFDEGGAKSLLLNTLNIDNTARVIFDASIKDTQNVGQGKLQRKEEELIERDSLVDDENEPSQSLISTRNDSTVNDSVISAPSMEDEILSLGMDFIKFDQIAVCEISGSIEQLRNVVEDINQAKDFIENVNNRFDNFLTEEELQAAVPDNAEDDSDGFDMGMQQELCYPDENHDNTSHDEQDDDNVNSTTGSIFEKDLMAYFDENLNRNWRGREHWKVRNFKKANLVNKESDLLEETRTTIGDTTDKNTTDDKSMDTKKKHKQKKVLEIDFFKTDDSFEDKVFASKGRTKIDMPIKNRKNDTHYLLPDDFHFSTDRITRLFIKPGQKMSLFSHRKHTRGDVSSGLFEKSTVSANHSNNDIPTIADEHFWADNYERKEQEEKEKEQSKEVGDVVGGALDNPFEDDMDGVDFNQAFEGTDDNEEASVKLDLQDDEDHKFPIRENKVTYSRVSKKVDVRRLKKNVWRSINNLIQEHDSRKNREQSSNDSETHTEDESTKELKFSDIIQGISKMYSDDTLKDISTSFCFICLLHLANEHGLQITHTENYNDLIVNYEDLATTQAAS

[7] = target: T1, Sc Ycg1 crystallization construct;Sc …; assay: X-ray crystallography; crystal form I, 2.98 A, 5 mM MgSO4; EMSA: 10 mM HEPES-KOH pH 7.5, 125 mM NaCl, 5 mM MgCl2, 1 mM DTT, 30 min, gels at 4 C, 0.2 uM 35-bp or 10 nM 2.1-kb DNA; ITC: 25 mM Tris-HCl pH 7.5, 200 mM NaCl, 2 mM MgCl2, 1 mM BME, 25 C; details: protein: recombinant;recombinant; tags: untagged;N-terminal His6-HRV3C; copies: 1;1; blunt, self-complementary
[8] = target: T2, Sc Ycg1 crystallization construct;Sc …; assay: X-ray crystallography; 5 mM MgSO4; EMSA: 10 mM HEPES-KOH pH 7.5, 125 mM NaCl, 5 mM MgCl2, 1 mM DTT, 30 min, gels at 4 C, 0.2 uM 35-bp or 10 nM 2.1-kb DNA; ITC: 25 mM Tris-HCl pH 7.5, 200 mM NaCl, 2 mM MgCl2, 1 mM BME, 25 C; details: protein: recombinant;recombinant; tags: untagged;N-terminal His6-HRV3C; copies: 1;1; blunt, self-complementary

Row | Molecule | binding signal [1] | binding signal [2] | binding signal [3] | other results
1 | 2.1-kb circular supercoiled plasmid | 83 nM | 21 nM | 83 nM | 
2 | CCTATAGTGAGTCACAATTCACTGG (double strand) [25-bp dsDNA] |  |  |  | Kd [4]: 1700 nM
3 | CCTATAGTGAGTCGTTCGATATTACAATTCACTGG (double strand) [35-bp dsDNA] | 800 nM | 800 nM | 800 nM | 
4 | 35-bp dsDNA (dsDNA) DNA 1: CCTATAGTGAGTCGTTCGATATTACAATTCACTGG DNA 2: CCAGTGAATTGTAATATCGAACGACTCACTATAGG |  |  |  | binding result [5]: no binding; binding result [6]: no binding
5 | 18-bp palindromic dsDNA (dsDNA) DNA 1: GATGTGTAGCTACACATC DNA 2: GATGTGTAGCTACACATC |  |  |  | binding result [7]: binds; binding result [8]: binds
